According to patent publication US20200247886A1 (ZLIP, published 2020):

How the values were obtained:
[1] = biological target: T1, human CD47 expressed on cells (CD47 expressing CHO cells, Jurkat, HL60, DLD1, Raji) (human, UniProt Q08722 19-292); assay: flow cytometry on DLD1 cells, IgG, MFI
T1 construct: also called CHO-CD47; IAP

[2] = biological target: T1, human CD47 expressed on cells (CD47 …); assay: flow cytometry on DLD1 cells, IgG, frequency
[3] = biological target: T1, human CD47 expressed on cells (CD47 …); assay: IC50 (nM) MFI as grade, blocking biotinylated SIRPa-Fc binding to DLD1 cells; legend +++: <1 nM
[4] = biological target: T1, human CD47 expressed on cells (CD47 …); assay: IC50 (nM) Frequency as grade, blocking biotinylated SIRPa-Fc binding to DLD1 cells; legend +++: <1 nM
[5] = biological target: T1, human CD47 expressed on cells (CD47 …); assay: flow cytometry blocking assay: 100 nM biotinylated SIRPa-Fc (blocked ligand) on DLD1 cells expressing CD47, MFI
[6] = biological target: T1, human CD47 expressed on cells (CD47 …); assay: flow cytometry blocking assay: 100 nM biotinylated SIRPa-Fc (blocked ligand) on DLD1 cells expressing CD47, frequency
[7] = biological target: T2, CD47 protein (construct not stated; SPR antigen, CD47 coated ELISA plates) (Homo sapiens (Human), UniProt Q08722 19-139, limits assumed); assay: SPR (Biacore T100), affinity (nM) as grade; legend +: >10 nM and <40 nM
T2 construct: also called the antigen

[8] = biological target: T1, human CD47 expressed on cells (CD47 …); assay: EC50 (nM) as grade, binding on Jurkat cells; legend +++: >0.05 nM and <1 nM
[9] = biological target: T1, human CD47 expressed on cells (CD47 …); assay: EC50 (nM) as grade, binding on CHO-CD47 cells; legend +++: >0.05 nM and <1 nM
CHO/mCD47-GFP = biological target: T3, CHO/mCD47-GFP (mouse, UniProt Q61735); assay: flow cytometry on CHO cells expressing mouse CD47-GFP, binding percentage
T3 construct: on the cell surface; also called mouse CD47 expressed on CHO cells; CHO cell expressing mouse CD47
T3 sequence (receptor, looked up): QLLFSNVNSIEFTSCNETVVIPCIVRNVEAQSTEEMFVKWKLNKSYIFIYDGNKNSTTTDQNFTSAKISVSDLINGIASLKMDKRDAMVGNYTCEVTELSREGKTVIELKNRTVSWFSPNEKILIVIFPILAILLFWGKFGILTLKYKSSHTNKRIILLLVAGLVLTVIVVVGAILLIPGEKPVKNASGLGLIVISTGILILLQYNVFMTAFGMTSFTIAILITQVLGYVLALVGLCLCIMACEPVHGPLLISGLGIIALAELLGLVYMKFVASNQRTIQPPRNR

[10] = biological target: T4, human CD47-Fc protein (Novoprotein, Cat#CG18) (human, UniProt Q08722 19-139); assay: IC50 (nM) as grade, neutralizing ELISA, CD47-hFc on SIRPα coated plate; legend ++++: <8 nM
T4 construct: Bought protein; also called CD47-hFc; hCD47-hFc fusion protein; not shown: human IgG Fc of the bought fusion protein

[11] = biological target: T4, human CD47-Fc protein (Novoprotein, …); assay: IC50 (nM) as grade, blocking of soluble CD47 binding to SIRPα-expressing CHO cells; legend ++: >1 nM and <10 nM
[12] = biological target: T1, human CD47 expressed on cells (CD47 …); assay: flow cytometry on human red blood cells, donor 2, MFI; EC50 (nM) table beside the legend
[13] = biological target: T1, human CD47 expressed on cells (CD47 …); assay: flow cytometry on CD47 expressing CHO cells, MFI (FL-4)
[14] = biological target: T5, biotin labelled polyhistidine tagged CD47 protein (Novoprotein, Cat#321) (human, UniProt Q08722 19-139, biotin labelled (site not stated)); assay: flow cytometry blocking assay: antibody mixed with biotinylated human CD47 protein; blocked ligand SIRPα on cells; binding percentage
T5 construct: Bought protein; also called biotinylated CD47; biotinylated human CD47 protein; not shown: polyhistidine tag

[15] = biological target: T1, human CD47 expressed on cells (CD47 …); assay: flow cytometry on human platelets, donor 1, MFI
[16] = biological target: T1, human CD47 expressed on cells (CD47 …); assay: flow cytometry on human platelets, donor 2, MFI
[17] = biological target: T1, human CD47 expressed on cells (CD47 …); assay: flow cytometry on human red blood cells, donor 1, MFI
[18] = biological target: T1, human CD47 expressed on cells (CD47 …); assay: flow cytometry on human red blood cells, donor 2, MFI
[19] = biological target: T1, human CD47 expressed on cells (CD47 …); assay: flow cytometry blocking assay on Raji cells, SIRPα is the blocked ligand, MFI
[20] = biological target: T1, human CD47 expressed on cells (CD47 …); assay: IC50 as grade, SIRPα blocking on Raji cells (second part of the table); legend +++: <1 nM

B1: ABU14 (IgG, chimeric version of the Fab) (antibody, V domains shown)
VH: EVQLQQSGPELVKPGASVKISCKASGYSFTNYHIHWVKQRPGQGLEWIGWIYPGSGNTKYNEKFKGMAILTADTSSSTAYMQLSSLTSEDSAVYYCARYDYDLYLHSWGQGTTVTVSS
VL: DIQINQSPSSLSASLGDTITITCHASQNINVWLSWYQQKPGNIPKLLIYKASNLHTGVPSRFSGSGSGTGFTLTISSLQPEDIATYYCQQGQSYPLTFGAGTKLEIK
With B1 the “EC50 (read off the curve)” value [1] was about 400 pM, the “EC50 (read off the curve)” value [2] was about 50 pM and the IC50 [3] was under 1000 pM. The IC50 [4] was under 1000 pM, the “IC50 (read off the curve)” value [5] was about 300 pM and the “IC50 (read off the curve)” value [6] was about 800 pM.

B2: ABU9 (IgG, chimeric version of the Fab) (antibody, V domains shown)
VH: EVQLQQSGPELVKPGASVKLSCKASGFTFTNYYIHWVKQRPGQGPEWIGWIYLGSGNTKYNEKFKGKATLTADTSSSTAYLQLSTLISEDSAVYYCARYDYDLYLDSWGQGTTVTVSS
VL: DIKMNQSPSSLSASLGDTITITCHASQNINVWLSWYQQKPGNIPKLLIYKASNLHTGVPSRFSGSGSGTGFTLTISSLQPEDIATYYCQQGQSYPLTFGAGTKLELK
For B2, the “EC50 (read off the curve)” value [1] was about 400 pM, the “EC50 (read off the curve)” value [2] was about 50 pM and the IC50 [3] was under 1000 pM. The IC50 [4] was under 1000 pM, the “IC50 (read off the curve)” value [5] was about 300 pM and the “IC50 (read off the curve)” value [6] was about 800 pM.

B3: Positive 1 (commercial anti-CD47 blocking antibody, eBioscience Cat#14-0479) (antibody, V domains shown)
VH: EVQLVESGGDLVKPGGSLKLSCAASGFTFSGYGMSWVRQTPDKRLEWVATITSGGTYTYYPDSVKGRFTISRDNAKNTLYLQIDSLKSEDTAIYFCARSLAGNAMDYWGQGTSVTVSS
VL: DIVMTQSPATLSVTPGDRVSLSCRASQTISDYLHWYQQKSHESPRLLIKFASQSISGIPSRFSGSGSGSDFTLSINSVEPEDVGVYYCQNGHGFPRTFGGGTKLEIK
notes: also called Pos; B6H12
B3 was tested, and the “Affinity by SPR” value [7] was 10 to 40 nM, the EC50 [8] was 50 to 1000 pM and the EC50 [9] was 50 to 1000 pM. For the same binder, the binding result (CHO/mCD47-GFP) was “no binding (tested: about 0.4 ug/ml)”, the IC50 [10] was under 8000 pM and the IC50 [11] was 1000 to 10000 pM.

B4: ABU2 (antibody, V domains shown)
VH: QVQLQQPGAELVRPGASVKLSCKASGYTFTNYWMNWFKQRPEQGLEWIGRIDPYDSETLYNQKFKDKAILTVDKSSSTAYMQLSSLTSEDSAVYYCAGGGKGGFGYWGQGTLVTVSA
VL: DVLMTQTPLSLPVSLGDQASISCRSSQSIVYSNGNTYLEWYLQKPGQSPKLLIYKVSNRFSGVPDRFSGSGSGTDFTLKISRVEAEDLGVYYCFQGSHVPYTFGGGTKLEIK
notes: Murine hybridoma monoclonal antibody
In the case of B4, the “Affinity by SPR” value [7] is reported as 10 to 40 nM, the EC50 [8] is reported as 50 to 1000 pM and the EC50 [9] is reported as 50 to 1000 pM. The binding result (CHO/mCD47-GFP) was “no binding (tested: about 0.4 ug/ml)”, the IC50 [10] was under 8000 pM and the EC50 [12] was 250 pM. It also gave an IC50 [11] of 1000 to 10000 pM.

B5: ABU5 (antibody, V domains shown)
VH: QVQLQQPGAELVKPGASVKMSCKASGYTFTNYWIAWVKRRPGQGLEWIGDFYPGNTSTNYNEKFKTKATLTIDTSSSTAYMQLSSLTSEDSAVYYCARRGRGGSSYWGQGTTLTVSS
VL: DVLMTQTPLSLPVSLGEQASISCRSSQSIVHSNGNTYLEWYLQKPGQSPKLLIYRVANRFSGVPDRFSGSGSGTDFTLKISRVEAEDLGVYYCFQGSHVPWTFGGGTKLEIK
notes: Murine hybridoma monoclonal antibody; also called ABUS [sic]
B5 was tested, and the “Affinity by SPR” value [7] was 10 to 40 nM, the EC50 [8] was 50 to 1000 pM and the EC50 [9] was 50 to 1000 pM. For the same binder, the binding result (CHO/mCD47-GFP) was “no binding (tested: about 0.4 ug/ml)”, the IC50 [10] was under 8000 pM and the EC50 [12] was 860 pM. It also gave an IC50 [11] of 1000 to 10000 pM.

B6: C-ABU2 (antibody, V domains shown)
VH: QVQLQQPGAELVRPGASVKLSCKASGYTFTNYWMNWFKQRPEQGLEWIGRIDPYDSETLYNQKFKDKAILTVDKSSSTAYMQLSSLTSEDSAVYYCAGGGKGGFGYWGQGTLVTVSA
VL: DVLMTQTPLSLPVSLGDQASISCRSSQSIVYSNGNTYLEWYLQKPGQSPKLLIYKVSNRFSGVPDRFSGSGSGTDFTLKISRVEAEDLGVYYCFQGSHVPYTFGGGTKLEIK
B6 was tested, and the “EC50 (read off the curve)” value [13] was about 1000 pM and the “IC50 (read off the curve)” value [14] was about 3000 pM.

B7: H-ABU 11 (antibody, V domains shown)
VH: QVQLVQSGAEVKKPGASVKVSCKASGYTFTDFYINWVRQAPGQRLEWMGWIYLGSGNTKYNEKFKGRVTITRDTSASTAYMELSSLRSEDTAVYYCARREERGFAYWGQGTLVTVSS
VL: DIVMTQSPDSLAVSLGERATINCKSSQSLLSSSQKNYLAWYQQKPGQPPKLLIYWASTRDSGVPDRFSGSGSGTDFTLTISSLQAEDVAVYYCQQFYSYPLTFGQGTKVEIK
For B7, the “EC50 (read off the curve)” value [15] was about 1000 pM, the “EC50 (read off the curve)” value [16] was about 900 pM and the “EC50 (read off the curve)” value [17] was about 1000 pM. The “EC50 (read off the curve)” value [18] was about 1000 pM, the “IC50 (read off the curve)” value [19] was about 800 pM and the IC50 [20] was under 1000 pM.

B8: H-ABU 8 (antibody, V domains shown)
VH: QVQLVQSGAEVKKPGASVKVSCKASGYTFTDNYINWVRQAPGQRLEWMGWVYLGSGNTKYNEKFKGRVTITRDTSASTAYMELSSLRSEDTAVYYCARREERGFAYWGQGTLVTVSS
VL: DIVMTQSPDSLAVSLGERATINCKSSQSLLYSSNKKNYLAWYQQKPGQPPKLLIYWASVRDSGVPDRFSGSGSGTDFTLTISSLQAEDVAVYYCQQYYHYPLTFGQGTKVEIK
For B8, the “IC50 (read off the curve)” value [19] was about 200 pM and the IC50 [20] was under 1000 pM.
